Measured values published in PMC12323374.

What was measured:
Nsp3 ADRP (SARS-CoV-2) = experiment: EMSA
Nsp3 HSUD (SARS-CoV-2) = experiment: EMSA
Nsp3 NAB (SARS-CoV-2) = experiment: EMSA
[1] = tested on: Nsp3 Ubl1 (SARS-CoV-2 (MN908947.3?)); experiment: EMSA
[2] = tested on: Nsp3 Ubl1 (in N complex);N protein (in Ubl1 complex) (SARS-CoV-2;SARS-CoV-2); experiment: EMSA
[3] = tested on: Nsp3 Y domain (SARS-CoV-2); experiment: EMSA
[4] = tested on: Nucleocapsid (N) protein (SARS-CoV-2); experiment: EMSA
[5] = target: SARS-CoV-2 nucleocapsid (N) protein, full length (419 amino acids) (SARS-CoV-2) (UniProt P0DTC9); experiment: SEC-RALS
[6] = target: SARS-CoV-2 Nsp3 ubiquitin-like 1 (Ubl1) domain, residues 1-111 (SARS-CoV-2); experiment: crystal structure

With 5' UTR (1-245) the Kd (Nsp3 ADRP (SARS-CoV-2)) was 198 µM, the Kd (Nsp3 HSUD (SARS-CoV-2)) was 41 µM and the Kd (Nsp3 NAB (SARS-CoV-2)) was 204 µM. The Kd [1] was 31 µM, the Kd [2] was 0.007 µM and the Kd [3] was 0.7 µM. The Kd [4] was 0.79 µM.
In the case of “His6-Nsp3 Ubl1 domain (residues 1-111) (domain or fragment)”, the stoichiometry N (Ubl1 per N (4:4)) [5] is reported as 1.
“SARS-CoV-2 Nsp3 ubiquitin-like 1 (Ubl1) domain, residues 1-111 (domain or fragment)” gave a stoichiometry N [6] of 2.
